Data published in PMC3863792.

T1: bio-d-mC5a (mirror-image mouse C5a) (mouse, UniProt P06684)
T1 sequence: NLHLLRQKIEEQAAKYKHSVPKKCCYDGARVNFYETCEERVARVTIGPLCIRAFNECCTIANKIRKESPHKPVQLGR


Molecular target: T1, bio-d-mC5a (mirror-image mouse C5a)
Assay: competition

| Binder | binding result |
| --- | --- |
| GCCUGAUGUGGUGUUGAAGGGUUGUUGGGUGUCGACGCACAGGC (structured_RNA) [274-C8-002] | binds |
| GCCUGAUGUGGUGGUGAAGGGUUGUUGGGUGUCGACGCACAGGC (structured_RNA) [274-C8-002-G14] | binds |
